For 1 molecule, EC50 results are on record in patent US20190382488A1 (IMAGINAB, published 2019).

The target in test [1] is T1, cell-surface human CD8 (human, UniProt P01732 22-235).
T1 construct: the cell is named under assay; also called cellular human CD8; CD8 on PC3-CD8 cells
Nature of the test: flow cytometry on primary human CD8+ T cells, Protein L-biotin then streptavidin-APC. As to the method:
(§1) Flow cytometry analysis of cys-diabody binding to cell-surface human CD8 on primary human CD8+ T cells was performed. Cells were stained with respective concentrations of cys-diabody, washed, stained with a secondary Protein L conjugated to Biotin, washed, then stained with a tertiary streptavidin-APC. Analysis was performed with 10,000 events/point in triplicate for each concentration. The results are shown in graph format in FIG. 30B. The graph presents the mean fluorescence intensity (MFI) vs. the log of the concentration (nM). Error bars represent the standard error. The data indicates an EC₅₀ of 0.02 nM.
Background: Flow cytometry measures light scatter and fluorescence of single cells or particles in a stream.

The target of test [2] is T1, cell-surface human CD8. The test can be described thus: flow cytometry on HPB-ALL cells, Protein L-biotin then streptavidin-APC. Here is the method: as §1, with “of cys-diabody (+/−C-terminal cysteine conjugation to Desferoxamine) binding to” for “of cys-diabody binding to”, “CD8 on HPB-ALL cells was” for “CD8 on primary human CD8+ T cells was”, “in FIG. 30C. The graph” for “in FIG. 30B. The graph”, “EC₅₀ of 0.04 nM and 0.06 nM.” for “EC₅₀ of 0.02 nM.”

For test [3], the target named is T1, cell-surface human CD8. Nature of the test: flow cytometry, HPB-ALL cells, Protein L-biotin and streptavidin-APC. As to the method: as §1, with “HPB-ALL” for “primary human CD8+ T”, “30A.” for “30B.”, “0.04” for “0.02”
Test [4] has as its target T1, cell-surface human CD8. The test can be described thus: flow cytometry on HPB-ALL cells, Protein L-biotin then streptavidin-APC. As to the method: as §1, with “HPB-ALL” for “primary human CD8+ T”, “30A.” for “30B.”, “0.04” for “0.02”
The source holds these as a separate data set.

Test [5] deals with T1, cell-surface human CD8. Nature of the test: flow cytometry, primary human CD8+ T cells, Protein L-biotin and streptavidin-APC. Here is the method: as §1

T1 sequence (P01732 22-235 limits assumed): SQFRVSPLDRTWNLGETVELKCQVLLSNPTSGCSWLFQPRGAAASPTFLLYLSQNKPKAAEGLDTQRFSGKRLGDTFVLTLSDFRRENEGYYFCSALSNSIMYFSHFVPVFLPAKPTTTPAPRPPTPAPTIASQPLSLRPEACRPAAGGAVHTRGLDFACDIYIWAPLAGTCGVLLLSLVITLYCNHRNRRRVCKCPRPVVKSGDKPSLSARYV

B1: IAb_Cys-Db3b_CD8 (other)
chain: DVQITQSPSSLSASVGDRVTITCRTSRSISQYLAWYQQKPGKVPKLLIYSGSTLQSGVPSRFSGSGSGTDFTLTISSLQPEDVATYYCQQHNENPLTFGGGTKVEIKGGGSGGGGEVQLVESGGGLVQPGGSLRLSCAASGFNIKDTYIHFVRQAPGKGLEWIGRIDPANDNTLYASKFQGKATISADTSKNTAYLQMNSLRAEDTAVYYCGRGYGYYVFDHWGQGTLVTVSSGGC
notes: Cys-diabody homodimer; also called humanized OKT8 cys-diabody VL-8-VH
As usually defined, the EC50 is the concentration at which the effect is half-maximal. High values mean a need for much substance, low ones an effect from little substance. Consider B1, for which the EC50 amounted to 0.02 nM with cell-surface human CD8 [1]; 0.04 nM with cell-surface human CD8 [2]; 0.04 nM in the test with cell-surface human CD8 [3]; 0.04 nM with cell-surface human CD8 [4]; 0.02 nM with cell-surface human CD8 [5].
